Reference: the Human Domainome abundance scans (Beltran et al. 2025)
± gives the uncertainty stated by the source.

B1: Tripartite motif-containing protein 49C, residues 87 to 133; numbered along this chain, P0CI26 (parent)
chain: SSEEQMCGTHRETKKIFCEVDRSLLCLLCSSSQEHRYHRHRPIEWAA

Variants of: B1
Assay: abundance fitness (aPCA) (normalised: wild type 0, dead -1); higher = more abundant; growth selection in yeast, the domain comes from the species named
Details: Homo sapiens
For T13Y, the abundance fitness was -0.277 ± 0.17.
T13L showed an abundance fitness of -0.21 ± 0.1.
Variant T13I has an abundance fitness of 0.046 ± 0.089.
In the case of T13C, the abundance fitness is reported as -0.22 ± 0.1.
In the case of T13R, the abundance fitness is reported as -0.128 ± 0.075.
With T13N the abundance fitness was -0.431 ± 0.15.
T13S gave an abundance fitness of -0.081 ± 0.086.
T13G showed an abundance fitness of -0.196 ± 0.079.
T13P showed an abundance fitness of 0.313 ± 0.12.
In the case of T13A, the abundance fitness is reported as 0.168 ± 0.097.
For T13K, the abundance fitness was -0.224 ± 0.15.
T13Q gave an abundance fitness of 0.148 ± 0.13.
Work on T13H yielded an abundance fitness of 0.006 ± 0.16.
In the case of T13W, the abundance fitness is reported as -0.436 ± 0.1.
In the case of T13E, the abundance fitness is reported as -0.028 ± 0.14.
T13M showed an abundance fitness of 0.242 ± 0.12.
In the case of T13V, the abundance fitness is reported as -0.033 ± 0.085.
T13D showed an abundance fitness of -0.364 ± 0.14.
In the case of T13F, the abundance fitness is reported as -0.232 ± 0.13.
Variant V20A has an abundance fitness of 0.141 ± 0.11.
V20M gave an abundance fitness of -0.007 ± 0.1.
With V20Q the abundance fitness was 0.052 ± 0.11.
With V20C the abundance fitness was -0.446 ± 0.093.
V20I gave an abundance fitness of -0.144 ± 0.076.
V20R showed an abundance fitness of -0.026 ± 0.078.
V20Y showed an abundance fitness of -0.036 ± 0.083.
Work on V20G yielded an abundance fitness of -0.485 ± 0.11.
Work on V20D yielded an abundance fitness of 0.164 ± 0.1.
For V20E, the abundance fitness was 0.101 ± 0.18.
Variant V20T has an abundance fitness of -0.067 ± 0.08.
V20K gave an abundance fitness of 0.161 ± 0.17.
Work on V20S yielded an abundance fitness of -0.07 ± 0.073.
V20N gave an abundance fitness of -0.014 ± 0.082.
With V20L the abundance fitness was -0.406 ± 0.076.
V20H gave an abundance fitness of -0.033 ± 0.08.
Variant I16V has an abundance fitness of -0.129 ± 0.093.
I16Q gave an abundance fitness of -0.468 ± 0.14.
With I16F the abundance fitness was -0.325 ± 0.19.
In the case of I16D, the abundance fitness is reported as -0.392 ± 0.2.
Work on I16N yielded an abundance fitness of -0.677 ± 0.19.
I16A showed an abundance fitness of -0.703 ± 0.12.
Work on I16G yielded an abundance fitness of -0.554 ± 0.1.
I16H gave an abundance fitness of -0.557 ± 0.3.
I16S showed an abundance fitness of -0.439 ± 0.094.
With I16R the abundance fitness was -0.497 ± 0.084.
I16C showed an abundance fitness of -0.384 ± 0.12.
I16E gave an abundance fitness of -0.444 ± 0.13.
I16W showed an abundance fitness of -0.28 ± 0.089.
For I16L, the abundance fitness was -0.372 ± 0.091.
In the case of I16M, the abundance fitness is reported as -0.107 ± 0.1.
Work on I16Y yielded an abundance fitness of -0.077 ± 0.28.
Variant I16T has an abundance fitness of -0.399 ± 0.13.
I16P gave an abundance fitness of -0.574 ± 0.13.
For I16K, the abundance fitness was -0.197 ± 0.12.
Variant E19Y has an abundance fitness of -0.737 ± 0.2.
With E19K the abundance fitness was -0.66 ± 0.18.
With E19P the abundance fitness was -0.026 ± 0.13.
E19D showed an abundance fitness of -0.297 ± 0.2.
With E19V the abundance fitness was -0.586 ± 0.095.
With E19H the abundance fitness was -0.944 ± 0.22.
Variant E19C has an abundance fitness of -0.255 ± 0.19.
Variant E19N has an abundance fitness of -0.433 ± 0.2.
Variant E19W has an abundance fitness of -0.647 ± 0.14.
Variant E19L has an abundance fitness of -0.651 ± 0.12.
E19Q gave an abundance fitness of -0.368 ± 0.15.
E19R showed an abundance fitness of -0.602 ± 0.1.
For E19S, the abundance fitness was -0.452 ± 0.12.
In the case of E19T, the abundance fitness is reported as -0.512 ± 0.16.
E19M showed an abundance fitness of -0.585 ± 0.16.
E19A gave an abundance fitness of -0.498 ± 0.11.
Variant E19G has an abundance fitness of -0.619 ± 0.098.
E19F showed an abundance fitness of -0.927 ± 0.26.
In the case of E19I, the abundance fitness is reported as -0.5 ± 0.21.
R22E showed an abundance fitness of 0.449 ± 0.16.
Work on R22F yielded an abundance fitness of -0.772 ± 0.23.
With R22A the abundance fitness was -0.267 ± 0.11.
Work on R22N yielded an abundance fitness of 0.019 ± 0.22.
With R22M the abundance fitness was -0.251 ± 0.15.
R22D showed an abundance fitness of -0.101 ± 0.26.
Work on R22L yielded an abundance fitness of -0.327 ± 0.13.
For R22I, the abundance fitness was -0.588 ± 0.23.
Variant R22K has an abundance fitness of 0.22 ± 0.12.
For R22G, the abundance fitness was 0.174 ± 0.098.
F17D gave an abundance fitness of -0.726 ± 0.14.
In the case of F17I, the abundance fitness is reported as -0.464 ± 0.15.
For F17V, the abundance fitness was -0.328 ± 0.091.
Variant F17N has an abundance fitness of -0.675 ± 0.18.
In the case of F17H, the abundance fitness is reported as -0.598 ± 0.18.
For F17S, the abundance fitness was -0.755 ± 0.11.
Variant F17M has an abundance fitness of -0.062 ± 0.11.
With F17Y the abundance fitness was -0.205 ± 0.14.
Work on F17W yielded an abundance fitness of 0.089 ± 0.12.
With F17K the abundance fitness was -0.274 ± 0.13.
In the case of F17T, the abundance fitness is reported as -0.443 ± 0.12.
Work on F17Q yielded an abundance fitness of -0.653 ± 0.27.
F17G gave an abundance fitness of -0.664 ± 0.095.
Variant F17C has an abundance fitness of -0.77 ± 0.2.
In the case of F17L, the abundance fitness is reported as -0.081 ± 0.094.
In the case of F17R, the abundance fitness is reported as -0.356 ± 0.093.
With K15W the abundance fitness was -0.668 ± 0.12.
Variant K15N has an abundance fitness of 0.201 ± 0.17.
Variant K15M has an abundance fitness of -0.578 ± 0.15.
For K15Q, the abundance fitness was -0.264 ± 0.13.
Variant K15G has an abundance fitness of -0.265 ± 0.084.
With K15L the abundance fitness was -0.3 ± 0.089.
K15S showed an abundance fitness of -0.147 ± 0.099.
K15P showed an abundance fitness of -0.79 ± 0.16.
K15T gave an abundance fitness of -0.119 ± 0.11.
Work on K15R yielded an abundance fitness of -0.415 ± 0.09.
With K15V the abundance fitness was -0.408 ± 0.095.
For K15F, the abundance fitness was -0.32 ± 0.15.
In the case of K15I, the abundance fitness is reported as -0.327 ± 0.14.
K15A gave an abundance fitness of -0.337 ± 0.1.
Variant K15E has an abundance fitness of 0.037 ± 0.12.
For K15C, the abundance fitness was -0.382 ± 0.15.
For K15D, the abundance fitness was -0.571 ± 0.14.
In the case of C18H, the abundance fitness is reported as -0.768 ± 0.16.
Variant C18W has an abundance fitness of -0.907 ± 0.13.
For C18E, the abundance fitness was -0.333 ± 0.23.
C18L gave an abundance fitness of -1.09 ± 0.17.
Work on C18G yielded an abundance fitness of -0.821 ± 0.11.
C18S gave an abundance fitness of -0.327 ± 0.11.
For C18A, the abundance fitness was -0.907 ± 0.15.
Work on C18I yielded an abundance fitness of -0.783 ± 0.23.
C18D gave an abundance fitness of -0.669 ± 0.21.
C18K gave an abundance fitness of -0.381 ± 0.2.
Variant C18Q has an abundance fitness of -0.731 ± 0.15.
C18Y showed an abundance fitness of -0.801 ± 0.18.
Work on C18T yielded an abundance fitness of -0.471 ± 0.11.
For C18R, the abundance fitness was -0.736 ± 0.094.
C18M gave an abundance fitness of -0.674 ± 0.17.
C18F showed an abundance fitness of -0.802 ± 0.16.
C18N gave an abundance fitness of -0.286 ± 0.18.
K14L gave an abundance fitness of -0.247 ± 0.093.
Variant K14Q has an abundance fitness of -0.328 ± 0.11.
Work on K14H yielded an abundance fitness of -0.738 ± 0.24.
In the case of K14C, the abundance fitness is reported as -0.222 ± 0.15.
K14M showed an abundance fitness of -0.199 ± 0.12.
With K14W the abundance fitness was -0.431 ± 0.11.
For K14V, the abundance fitness was -0.33 ± 0.093.
K14E showed an abundance fitness of -0.173 ± 0.17.
K14R showed an abundance fitness of 0.02 ± 0.082.
In the case of K14A, the abundance fitness is reported as -0.029 ± 0.1.
Variant K14N has an abundance fitness of -0.419 ± 0.2.
With K14G the abundance fitness was -0.518 ± 0.085.
Variant K14F has an abundance fitness of -0.811 ± 0.23.
Work on K14S yielded an abundance fitness of -0.708 ± 0.1.
Variant K14P has an abundance fitness of -0.431 ± 0.16.
K14D showed an abundance fitness of -0.303 ± 0.18.
With K14T the abundance fitness was -0.644 ± 0.15.
For D21H, the abundance fitness was -0.267 ± 0.37.
In the case of D21C, the abundance fitness is reported as 0.149 ± 0.12.
D21T showed an abundance fitness of 0.061 ± 0.11.
Variant D21L has an abundance fitness of -0.573 ± 0.11.
For D21E, the abundance fitness was -0.142 ± 0.12.
D21P gave an abundance fitness of -1.02 ± 0.17.
D21F gave an abundance fitness of -0.562 ± 0.18.
Work on D21K yielded an abundance fitness of 0.022 ± 0.12.
D21M showed an abundance fitness of -0.604 ± 0.14.
With D21S the abundance fitness was -0.023 ± 0.094.
Work on D21G yielded an abundance fitness of -0.357 ± 0.081.
With D21I the abundance fitness was -0.789 ± 0.32.
Variant D21Y has an abundance fitness of -0.084 ± 0.19.
D21Q gave an abundance fitness of 0.104 ± 0.1.
Variant D21N has an abundance fitness of -0.01 ± 0.13.
D21R gave an abundance fitness of -0.152 ± 0.083.
Variant D21W has an abundance fitness of -0.198 ± 0.098.
